Here are results for 40 sequences from the nanobody polyreactivity screen of Harvey et al. (2022).

The data set in a line: yeast display, Sf9 membrane polyspecificity reagent, FACS + sequencing; frameworks hold sequencing errors. An outline of the steps:
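Nanobodies from a synthetic yeast display library (Saccharomyces cerevisiae BJ5465), induced 36–48 hours with galactose, were stained 1 hour at 4 °C with 10% biotinylated, detergent-solubilized Sf9 membrane reagent, enriched on streptavidin microbeads, then FACS-sorted. Anti-HA (expression) and streptavidin (reagent binding) fluorescence set low and high (top ~1%) gates. Polyreactivity labels come from the gate of origin. Genes were colony-PCR amplified, MiSeq 2 × 250 sequenced and filtered by CDR length.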
Consider “QVQLVESGGGLVQAGGSLRLSCAASGFIFDYYAMGWYRQAPGKERELVAAITRDGGGTYYADSVKGRFTISRDNAKNTVYLQMNSLKPEDTAVYYCAARRAVRLYYWGQGTQVTVSS”, for which the “polyreactivity (PSR sort gate)” value is “high polyreactivity”.

With “QVQLVESGGGLVQAGGSLRLSCAASGFIFDYYAMGWYRQAPGKERELVAAITSRSGSTYYADSVKGRFTISRDNAKNTVYLQMNSLKPEDTAVYYCARRFKYGSTAWRFYYWGQGTQVTVSS”, the “polyreactivity (PSR sort gate)” value was “high polyreactivity”.

As for “QVQLVESGGGLVQAGGSLRLSCAASGFIFDYYAMGWYRQAPGKERELVAAITWSGGSTYYADSVKGRFTISRDNAKYTVFLQMNSLKPEDTAVYYCNAYNWTYCEYEYWGQGTQVTVSS”, the “polyreactivity (PSR sort gate)” value is on record as “high polyreactivity”.

Consider “QVQLVESGGGLVQAGGSLRLSCAASGFIFDYYAMGWYRQAPGTEREFVAAITWDGGSTYYADSVKGRFTISRDNAKNTVYLQMNSLKTEDTAVYYCAAETWGEYGYWGQGTQVTVSS”, for which the “polyreactivity (PSR sort gate)” value is reported as “low polyreactivity”.

For “QVQLVESGGGLVQAGGSLRLSCAASGFIFDYYAMGWYRQAPVKERELVAAISWSGGSTYYADSVKGRFTISRDNAKNTVYLQMNSLKPEDTAVYYCNSYYQGYWGDFDYWGQGTQVTVSS”, the “polyreactivity (PSR sort gate)” value is listed as “high polyreactivity”.

Consider “QVQLVESGGGLVQAGGSLRLSCAASGFIFDYYTMGWYRQAPGKERELVASIRSSGSSTYYADSVKGRFTISRDNAKNTVYLQMNSLKPEDTAVYYCARRYVVNRDWGDDYWGQGTQVTVSS”, for which the “polyreactivity (PSR sort gate)” value is listed as “high polyreactivity”.

For the sequence “QVQLVESGGGLVQAGGSLRLSCAASGFIFEHYAMGWYRQAPGKERELVAAISRTGGRTYYADSVKGRFTISRDNAKNTVYLQMNSLKPEDTAVYYCAATAYSRLGVSSDYWGQGTQVTVSS”, the “polyreactivity (PSR sort gate)” value is “high polyreactivity”.

In the case of “QVQLVESGGGLVQAGGSLRLSCAASGFIFELYAMGWYRQAPGKERDLVAVISYDGGSTYYADSVKGRFTISRDNAKNTVYLQMNSLKPEDTAVYYCNTYAGLVSPSDLYDYWGQGTQVTVSS”, the “polyreactivity (PSR sort gate)” value was “low polyreactivity”.

“QVQLVESGGGLVQAGGSLRLSCAASGFIFEMYAMGWYRQAHGKERELVAAISSSGDSTYYADSVKGRFTISRDNEKNTVYLQMNSLIPEDNAVYYCATECGYALYDYWGQGTQVTVSS”: the “polyreactivity (PSR sort gate)” value is recorded as “low polyreactivity”.

Consider “QVQLVESGGGLVQAGGSLRLSCAASGFIFERYTMGWYRHAPGKERELVAAISDSGGSTYYADSVKGRFTISRDNAKNTVYLQMNSLKPEDTAVYYCAAKFRNYRPSKYYYWGQGTQVTVSS”, for which the “polyreactivity (PSR sort gate)” value was “high polyreactivity”.

As for “QVQLVESGGGLVQAGGSLRLSCAASGFIFEYNAMGWYRQAPGKERELVAAITSSGGSTYYADSVKGRFTISRDNAKNTVYLQMNSLKPEDTAVYYCARVRRSAYYKDYYYWGQGTQVTVSS”, the “polyreactivity (PSR sort gate)” value is recorded as “high polyreactivity”.

“QVQLVESGGGLVQAGGSLRLSCAASGFIFFPYVMGWYRQAPGKEREFVAAITGDGGSTYYADSVKGRFTISRDNAKNTVYLQMNSLKPEDTAVYYCAAEFGLWYWDWAASEDYWGQGTQVTVSS”: the “polyreactivity (PSR sort gate)” value is on record as “high polyreactivity”.

“QVQLVESGGGLVQAGGSLRLSCAASGFIFFTNAMGWYRQAPGKERELVAAITDDGSTYYADSVKGRFTISRDNAKNTVYLQMNSLKPEDTAVYYCNVVLQDPSYSWFWYDYDYWGQGTQVTVSS”: the “polyreactivity (PSR sort gate)” value is “high polyreactivity”.

Take “QVQLVESGGGLVQAGGSLRLSCAASGFIFFYYAMGWYRQAPGKERELVAAISASGGSTYYADSVKGRFTISRDNAKNTVYLQLNSLKPEDTAVYYCAARYRKAESARWEYGYWGQGTQVTVSS”: the “polyreactivity (PSR sort gate)” value is recorded as “high polyreactivity”.

As for “QVQLVESGGGLVQAGGSLRLSCAASGFIFGAYTMGWYRQAPGKESELVADISRRGGTTYYADSVKGRFTISRDNAKNTVYLQMNSLKPEDTAVYYCANVANFWYNTTLRGYYYWGQGTQVSVSS”, the “polyreactivity (PSR sort gate)” value was “high polyreactivity”.

“QVQLVESGGGLVQAGGSLRLSCAASGFIFGDNAMGWYRQAPGKERELVAAITYSGGSTYYADSVKGRFTISRDYAKNTVYLQMNSLKPEDTAVYDCAASNQWSSTYLTYGYYYWGQGTQVTVSS”: the “polyreactivity (PSR sort gate)” value was “low polyreactivity”.

On to “QVQLVESGGGLVQAGGSLRLSCAASGFIFGGYAMVWYRQAPGKERELVAAISSSGGSTYYADSVTGRFTISRDNAKNTVSLQMNSLKPEDTAVYYCAIVGWSRRYYYWGQGTQVTLSS”, for which the “polyreactivity (PSR sort gate)” value is “high polyreactivity”.

With “QVQLVESGGGLVQAGGSLRLSCAASGFIFGHYAMGWYRQAPGKERELVAAIRSRGGDRTYADSVKGRFTISRDNAKNTVYLQMNSLKPEDTAVYYCAADGPGTSEDDYWGQGTQVTVSS”, the “polyreactivity (PSR sort gate)” value is reported as “high polyreactivity”.

As for “QVQLVESGGGLVQAGGSLRLSCAASGFIFGINAMGWYRQAPGKERELVATITSGGGTNYADSVKGRFTISRDNAKNTVYLQMNSLKPEDTAVYYCAKAPDTQTSWSRQEGNYWGQGTQVTVSS”, the “polyreactivity (PSR sort gate)” value was “low polyreactivity”.

For the sequence “QVQLVESGGGLVQAGGSLRLSCAASGFIFGKNAMGWYRQAPGKERELVAVISWRGSSTYYADSVKGRFTISRDNAKNTVYLQMNSLNPEDTAVYYCAARYPARGTLYYWGQGTQVTVSS”, the “polyreactivity (PSR sort gate)” value is reported as “low polyreactivity”.

“QVQLVESGGGLVQAGGSLRLSCAASGFIFGLNALGWYRPAPGKERELDAAIRSASSTNYADSVKGRFTISRDNAKNTVFLQMNSLKPEDTAVYYCAAEYVTYQQGFWGYDYWGQGTQVTVSS”: the “polyreactivity (PSR sort gate)” value was “low polyreactivity”.

With “QVQLVESGGGLVQAGGSLRLSCAASGFIFGLNAMGWYRQAPGKERELVAVIAFSGGSTYYADSVKGRFTISRDHAKNTVYLQMNSLKPEDTAVYYCNAVTRYPHPREYDYWGQGTQVTVSS”, the “polyreactivity (PSR sort gate)” value is recorded as “high polyreactivity”.

For the sequence “QVQLVESGGGLVQAGGSLRLSCAASGFIFGLNAMGWYRQAPGKERELVAVIAFSGGSTYYADSVKGRFTISRDNAKNTVYLQMNSLKPEDTAVYYCNAVTRYPHPREYDYWGQGTQVTVSS”, the “polyreactivity (PSR sort gate)” value is given as “high polyreactivity”.

As to “QVQLVESGGGLVQAGGSLRLSCAASGFIFGLYAMGWYRQAPGKERELVAAISGSGGSTYYADSVKGRFTISRDNAKNTVYLQMNSLKPEDTAVYYCNRAQGVHTYVYRYGYWGQGTQVTVSS”, the “polyreactivity (PSR sort gate)” value was “low polyreactivity”.

Take “QVQLVESGGGLVQAGGSLRLSCAASGFIFGLYAMGWYRQAPGKERELVAAISRRGGSTYYADSVKGRFTISLDNAKNTVYLQMNSLKPEDTAVYYCATDHSYIDDWGQGTEVTVSS”: the “polyreactivity (PSR sort gate)” value is listed as “high polyreactivity”.

Regarding “QVQLVESGGGLVQAGGSLRLSCAASGFIFGLYAMGWYRQAPGKERELVASISRRGGSTYYADSVKGRFTISRDNAKNTVYLQMNSLKPEDTAVYYCNAVGRLYLYGSWGQGTQVTVSS”, the “polyreactivity (PSR sort gate)” value was “high polyreactivity”.

“QVQLVESGGGLVQAGGSLRLSCAASGFIFGPNAMGWYRQAPGKERELVAAIRWSGSRTYYADSVKGRFTISRDNAKNTVYLQMNSLKPEDTAVYYCATTYGYYTYDYWGQGTQVTVSS”: the “polyreactivity (PSR sort gate)” value is on record as “high polyreactivity”.

Take “QVQLVESGGGLVQAGGSLRLSCAASGFIFGPYAMGWYRQAPGKERELVADITIDSGSTYYADSVKGRFTISRDNAKNTVYLQMNSLKPEDTAVYYCATDYWNEYEYWGQGTQVTVSS”: the “polyreactivity (PSR sort gate)” value was “low polyreactivity”.

As to “QVQLVESGGGLVQAGGSLRLSCAASGFIFGSNAMGWYRQAPGKERELVAAIDSSGGRTYYADSVKGRFTISRDNAKNTVYLQMISLKPEDTAVYYCNVYRWSQLFEYDYWGQGTQVTVSS”, the “polyreactivity (PSR sort gate)” value is recorded as “high polyreactivity”.

On to “QVQLVESGGGLVQAGGSLRLSCAASGFIFGSYAMGWYRQAPGKERELVAAITSDGNTDYADSVKGRFTISRDNAKNTVYLQMNSLKPEDTAVYYCNKPYGAETALREFDYWGQGTQVTVSS”, for which the “polyreactivity (PSR sort gate)” value was “low polyreactivity”.

In the case of “QVQLVESGGGLVQAGGSLRLSCAASGFIFGSYTMGWYRQAPGKERELVAAITTGGSTNYADSVKGRFTISRDNAKNTVYLQMNSLKPEDTAVYYCNAVWYYRGNPDIYGGLDYWGQGTQVTVSS”, the “polyreactivity (PSR sort gate)” value is “low polyreactivity”.

Regarding “QVQLVESGGGLVQAGGSLRLSCAASGFIFGTNAMGWYRQAPGKERELVASISSTGGSTYYADSVKGRFTISRDNAKNTVYLQMNSLKPEDTAVYYCAADPYPEYIRYLPGVDYWGQGSQVTVSS”, the “polyreactivity (PSR sort gate)” value is “low polyreactivity”.

Regarding “QVQLVESGGGLVQAGGSLRLSCAASGFIFGTYAMGWYRQAPGKERELVAAISSGGSTYYADSVKGRFTISRDNAKNTVYLQMNSLKPEDTAVYYCAKEGGTYRIFNYWGQGTQVTVSS”, the “polyreactivity (PSR sort gate)” value is listed as “low polyreactivity”.

With “QVQLVESGGGLVQAGGSLRLSCAASGFIFGTYTMGWYRQAPGKERELVAAISKSSGSTYYADSVKGRFTISRDNAKNTVYLQMNSLKPEDTAVYYCAAPTRSYGTPPYDYWGQGTQVTVSS”, the “polyreactivity (PSR sort gate)” value is on record as “low polyreactivity”.

With “QVQLVESGGGLVQAGGSLRLSCAASGFIFGWNAMGWYRQAPGKERELVATITRGSTYYADSVKGRFTISRDNAKNTVYLQMNSLKPEDTAVYYCNVVYYGRWANYDYWGQGTQVTVSS”, the “polyreactivity (PSR sort gate)” value is “low polyreactivity”.

As to “QVQLVESGGGLVQAGGSLRLSCAASGFIFGWSGMGWYRLAPGKERELVAAITGSGVRTYYAASVKGRFTISRDNAENTVYLQMNRLKPEDTAVYYCARAGGYVGRGYKDQDGRGDYGGQGTQVTVSS”, the “polyreactivity (PSR sort gate)” value was “high polyreactivity”.

With “QVQLVESGGGLVQAGGSLRLSCAASGFIFGYNAMGWYRQAPGKEREFVAAISWTGGRTYYADSVKGRFTISRDNAKNTVYLQMNSLKPEDTAVYYCAALRGWLPGTRTRYYYWGQGTQVTVSS”, the “polyreactivity (PSR sort gate)” value is on record as “high polyreactivity”.

“QVQLVESGGGLVQAGGSLRLSCAASGFIFGYNAMGWYRQAPGKERELVAAITSRGDRTYYADSVKGRFTISRDNAKNTVYLQMNSLKPEDTAVYYCAKATRGYRSPYGSIGYYYWGLGTQVTVSS”: the “polyreactivity (PSR sort gate)” value was “high polyreactivity”.

For “QVQLVESGGGLVQAGGSLRLSCAASGFIFGYNAMGWYRQAPGKERELVAALDSGDSTYYADSVKGRFTLSRDNAKNTVYLQMNSLKPEDTAVYYCATDVTFVYDFGYFQFDYWGQGTQVTVSS”, the “polyreactivity (PSR sort gate)” value is reported as “low polyreactivity”.

“QVQLVESGGGLVQAGGSLRLSCAASGFIFGYYAMGWYRQAPGKERELVAAINKNGGSTYYADSVKGRFTISRDNAKNTVYLQMNSLKPEVTAVYYCAARARGYAWTYDYWGQGTQVTVSS”: the “polyreactivity (PSR sort gate)” value is “high polyreactivity”.
